These results are taken from patent US20160129078A1, “Rhomboid Proteins and Uses Thereof” (Queen's University at Kingston, priority 2014, published 2016).

The test deals with Pseudomonas aeruginosa. Description: Enhancement of peptide delivery into Pseudomonas aeruginosa. The settings on record: nine amino acid peptides targeting Type II secretion pseudopilin subunit. Format: cell-based. The source says:
With the Pseudomonas assay system described above, it was also possible to assess the ability and the utility of At1g74130 protein variants in the delivery of other peptides into cells. The assays were designed in the same manner as above to determine if peptide delivery can be enhanced or facilitated by rhomboids. The other peptides used were designed to inhibit protein secretion, in this case, lipases. The peptides used in these assays were nine amino acids long and targeted a specific region of one protein subunit of the Type II secretion machinery pseudopilin. The inhibitory actions of this nine amino acid peptide are due to interactions with the target region of the protein subunit. If peptide delivery was facilitated or enhanced by rhomboids, outcomes may be observed by changes in cell/colony growth (Pseudomonas) on the minimal media-olive oil plates. Such changes in growth would reflect changes in lipase secretion, which is needed for breaking down olive oil so that the released carbon can be used for cell growth.
The delivery of the M variant further into the cell releases the impairment and allows growth to resume (i.e., the assay with elution buffer, DMSO, and M). […]

B1: At1g74130 M: 7/8 M-form splice variant of Arabidopsis At1g74130 rhomboid protein (protein, listed as Arabidopsis thaliana)
chain: MHAIFCRRVAVGCSSPQLTKLVTKQASQSRHSLSHLLPFDLSSRFVPPYVVSRSARVHGFFAGKLGNTNLKLKFGNVMESRAGFFSSELPSHGFESGGFTGFQKRGWKSWINGANGVVFGLVIANAAVFTMWRVLGKDNMWMVKNFMLSRYSFMTGRIHTLITSGFSHVGATHIILNMMGLCYFGARIARSFGPRYLLKLYFAGALGGSVFFLSSHALSVISLKGQRVVPKDQLKVPIGKLGANGPVYAITLLDMLLYPKVTTYFGLMLRVPVFAGIYSLGLNIIKMLEVCMMGKTTIP
Regarding B1, the “peptide delivery into cells” value is recorded as “facilitation and/or enhancement of peptide delivery”.
